The text below walks through data of paper PMC4755027.

For the assay, the target named is Human TLR4 on HEK-Blue reporter cells (human) (UniProt O00206). To be noted: scale: absorbance at 640 nm.
UniProt O00206, sequence (O00206 24-839): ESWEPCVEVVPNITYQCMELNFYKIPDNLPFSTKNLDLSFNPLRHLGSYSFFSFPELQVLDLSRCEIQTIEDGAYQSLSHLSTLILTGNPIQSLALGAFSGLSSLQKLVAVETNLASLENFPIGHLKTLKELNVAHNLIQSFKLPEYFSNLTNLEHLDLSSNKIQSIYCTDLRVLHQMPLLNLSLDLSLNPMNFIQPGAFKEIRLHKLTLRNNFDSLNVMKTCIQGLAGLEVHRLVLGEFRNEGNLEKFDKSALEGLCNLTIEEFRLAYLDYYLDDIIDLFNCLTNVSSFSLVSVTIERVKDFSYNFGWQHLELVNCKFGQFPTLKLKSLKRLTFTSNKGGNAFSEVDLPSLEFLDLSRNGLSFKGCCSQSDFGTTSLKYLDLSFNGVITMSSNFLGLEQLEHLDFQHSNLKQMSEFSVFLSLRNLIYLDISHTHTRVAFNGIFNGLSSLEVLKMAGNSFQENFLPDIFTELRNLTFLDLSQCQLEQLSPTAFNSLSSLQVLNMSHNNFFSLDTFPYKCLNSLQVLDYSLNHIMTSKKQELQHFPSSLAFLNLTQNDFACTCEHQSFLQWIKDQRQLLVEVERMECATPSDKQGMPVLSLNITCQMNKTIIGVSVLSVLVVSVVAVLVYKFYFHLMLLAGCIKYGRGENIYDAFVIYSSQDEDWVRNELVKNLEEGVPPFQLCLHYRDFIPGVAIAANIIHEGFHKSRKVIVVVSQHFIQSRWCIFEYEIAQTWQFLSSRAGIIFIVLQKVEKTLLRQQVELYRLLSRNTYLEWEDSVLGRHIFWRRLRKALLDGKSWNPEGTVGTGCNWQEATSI

“Bovine annexin A2 heterotetramer (from UniProt P04272 1-339; P60902 1-97) (complex)” registered a secreted alkaline phosphatase of HEK-Blue human TLR4 reporter cells, absorbance at 640 nm normalized to media controls, mean of three experiments of 1.7.

“Human monomeric annexin A2 (from UniProt P07355 1-339) (natural protein)”: the secreted alkaline phosphatase of HEK-Blue human TLR4 reporter cells, absorbance at 640 nm normalized to media controls, mean of three experiments; significantly superior to equimolar ANXA2t is 2.7.
